The source of these data is US20240417707.

What all share (test): cell_activity
For series [1], the system named is Nme2-ABE8e-i1 (Neisseria meningitidis).
Series [2] has as its system Nme2-ABE8e-i1 V106W V106W (in TadA8e) (Neisseria meningitidis).
The subject of series [3] is Nme2-ABE8e-nt (Neisseria meningitidis).
The mark [4] stands for this setting: A6 editing, mouse liver in vivo, N4CC PAM.
The mark [5] stands for this setting: up to, off-target A-to-G, mouse liver.

With Rosa26 sgRNA ; Rosa26 target, the activity stood at 49% in series [1] (setting [4]), 46% in series [2] (setting [4]) and 34% in series [3] (setting [4]).

As to Rosa26 sgRNA ; Rosa26-OT1 off-target, the activity stood at 7% in series [1] (setting [5]); 5% in series [2] (setting [5]); 0.2% in series [3] (off-target A-to-G, mouse liver).
